From patent US20250250357A1 (NANJING ZAIMING PHARMACEUTICAL, published 2025)

T1: human MSLN-R1-his protein (human, UniProt Q13421 296-390)
T1 construct: Region 1 of human mesothelin, made in HEK293E cells, His-tagged; also called human MSLN-R1 protein; hMSLN-R1-his; not shown: His tag
T1 chain: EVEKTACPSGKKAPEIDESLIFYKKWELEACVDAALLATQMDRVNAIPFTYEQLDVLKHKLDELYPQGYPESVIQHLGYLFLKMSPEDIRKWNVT

B1: S009-F8-32.3 (antibody, human IgG1, kappa, V domains shown)
VH: QVQLKESGPGLVAPSQSLSITCTVSGFSLSSYAISWVRQPPGKGLEWLGVIWTGGGTNYNSALKSRLSISKDNSKSQVFLKMNSLQTDDTARFYCARNNYGRLDYAMDYWGQGTSVTVSS
VL: DVVMTQTPLSLPVSLGDQASISCRSSQSLVHGNGNTYLHWYLQKPGQSPKLLIYKVSNRFSGVPDRFSGSGSGTDFTLKISRVETEDLGVYFCSQSTHVPFTFGSGTKLEIKR
B2: S009-F8-33.12 (antibody, human IgG1, kappa, V domains shown)
VH: EVQLQQSGAELVKPGASVKLSCTASAFNIKDYYMHWVKQRTEQGLEWIGRIDPEDGETKYAPKFQGKATITADTSSNTAYLQLSSLTSEDTAVYYCASGSGTGAMDYWGQGTSVTVSS
VL: DIVMTQSQKFMSTSVGDRVSITCKASQNVRTAVGWYQQKPGQSPKALIYLASNRHTGVPDRFTGSGSGTDFTLTISNVQSEDLADYFCLQHWNSPYTFGGGTKLVIKR
B3: S009-F7.2.3 (antibody, human IgG1, kappa, V domains shown)
VH: ELQLVESGGDLVKPGGSLKLSCAASGFTFSSNGMSWLRQTPDKRLEWVATISSGGRYTYYPDSVKGRFTISRDNAKNTLYLQMSSLKSEDTAMYYCARRGIYDYFDCWGQGTTLTVSS
VL: DIQMTQSPASLSISVGETVTITCRASENIHSSLAWYQQKQGKSPQLLVYAATNLADGVPSRFSGSGSGSQYSLKINSLQSEDFGTYYCQHFWGTPWTFGGGTKLDIKR
notes: Human-murine chimeric antibody, human IgG1 heavy and kappa light constant regions
B4: S009-F8-36.12 (antibody, human IgG1, kappa, V domains shown)
VH: EVQLQQSGPELVKPGASVKISCKASGYTFTDYYMNWVKQSHGKSLEWIGDINPNNGGTSYNQKFKGKATLTVDKSSSTAYMELRSLTSEDSAVYYCASWGYGSSSRGYFDYWGQGTTLTVSS
VL: QIVLSQSPAILSASPGEKVTMTCRASSSVSYMHWYQQKPGSSPKPWIYATSNLASGVPARFSGSGSGTSYSLTISRVEAEDAATYYCQQWSSNPWTFGGGTKLEIKR

Key:
[1] = target: T2, human MSLN-R2-his protein (human, UniProt Q13421 391-486); experiment: ELISA on coated MSLN-R2; antibody 10 nM
T2 construct: Region 2 of human mesothelin, made in HEK293E cells, His-tagged; also called human MSLN-R2 protein; hMSLN-R2-his; not shown: His tag
T2 sequence (Q13421 other isoform, or with tags, fused parts or gaps): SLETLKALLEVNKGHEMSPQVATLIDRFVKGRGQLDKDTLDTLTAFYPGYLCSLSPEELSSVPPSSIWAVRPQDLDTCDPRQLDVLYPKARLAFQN

[2] = target: T3, human MSLN-R3-his protein (human, UniProt Q13421 487-598); experiment: ELISA on coated MSLN-R3; antibody 100 nM
T3 construct: Region 3 of human mesothelin, made in HEK293E cells, His-tagged; also called human MSLN-R3 protein; hMSLN-R3-his; not shown: His tag
T3 sequence (Q13421 495-606): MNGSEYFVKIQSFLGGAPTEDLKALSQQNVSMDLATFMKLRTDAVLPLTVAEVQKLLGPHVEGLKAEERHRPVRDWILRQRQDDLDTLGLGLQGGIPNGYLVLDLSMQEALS

[3] = target: T2, human MSLN-R2-his protein; experiment: ELISA on coated MSLN-R2; antibody 1 nM
Experimental: (§1) The plate was sealed with a plastic film and incubated at 4° C. overnight. The next day, the plate was washed twice with PBST, and a blocking buffer [PBS+2% (w/w) BSA] was added for blocking at room temperature for 2 h. The blocking buffer was discarded, and a chimeric antibody or negative control antibody serially diluted from 100 nM was added at 50 μL/well. After incubation at 37° C. for 2 h, the plate was washed 3 times with PBST. […] After incubation at 37° C. for 2 h, the plate was washed 5 times with PBST. A TMB substrate was added at 50 μL/well for incubation at room temperature for 5-10 min, and then a stop solution (1.0 N HCl) was added at 50 μL/well.

[4] = target: T2, human MSLN-R2-his protein; experiment: ELISA on coated MSLN-R2; antibody 0.0001 nM
Experimental: as §1

[5] = target: T3, human MSLN-R3-his protein; experiment: ELISA on coated MSLN-R3; antibody 10 nM
Experimental: as §1

[6] = target: T2, human MSLN-R2-his protein; experiment: ELISA on coated MSLN-R2; antibody 0.1 nM
Experimental: as §1

[7] = target: T1, human MSLN-R1-his protein; experiment: ELISA on coated MSLN-R1; no antibody (blank)
Experimental: as §1

[8] = target: T2, human MSLN-R2-his protein; experiment: ELISA on coated MSLN-R2; no antibody (blank)
[9] = target: T1, human MSLN-R1-his protein; experiment: ELISA on coated MSLN-R1; antibody 100 nM
[10] = target: T2, human MSLN-R2-his protein; experiment: ELISA on coated MSLN-R2; antibody 0.001 nM
[11] = target: T1, human MSLN-R1-his protein; experiment: ELISA on coated MSLN-R1; antibody 0.1 nM
Experimental: as §1

[12] = target: T3, human MSLN-R3-his protein; experiment: ELISA on coated MSLN-R3; antibody 0.01 nM
[13] = target: T1, human MSLN-R1-his protein; experiment: ELISA on coated MSLN-R1; antibody 0.0001 nM
Experimental: as §1

[14] = target: T3, human MSLN-R3-his protein; experiment: ELISA on coated MSLN-R3; antibody 0.0001 nM
Experimental: as §1

[15] = target: T1, human MSLN-R1-his protein; experiment: ELISA on coated MSLN-R1; antibody 0.01 nM
Experimental: as §1

[16] = target: T1, human MSLN-R1-his protein; experiment: ELISA on coated MSLN-R1; antibody 1 nM
[17] = target: T2, human MSLN-R2-his protein; experiment: ELISA on coated MSLN-R2; antibody 100 nM
[18] = target: T2, human MSLN-R2-his protein; experiment: ELISA on coated MSLN-R2; antibody 0.01 nM
[19] = target: T3, human MSLN-R3-his protein; experiment: ELISA on coated MSLN-R3; antibody 0.1 nM
Experimental: as §1

[20] = target: T3, human MSLN-R3-his protein; experiment: ELISA on coated MSLN-R3; no antibody (blank)
[21] = target: T1, human MSLN-R1-his protein; experiment: ELISA on coated MSLN-R1; antibody 10 nM
[22] = target: T3, human MSLN-R3-his protein; experiment: ELISA on coated MSLN-R3; antibody 1 nM
[23] = target: T1, human MSLN-R1-his protein; experiment: ELISA on coated MSLN-R1; antibody 0.001 nM
Experimental: as §1

[24] = target: T3, human MSLN-R3-his protein; experiment: ELISA on coated MSLN-R3; antibody 0.001 nM
Experimental: as §1

[25] = target: T4, human MSLN-R2-his protein (human, UniProt Q13421 391-486); experiment: ELISA on coated antigen, antibody 0.2 nM
T4 construct: it is put last here; also called human MSLN-R2 protein; hMSLN-R2-his; not shown: His tag
T4 sequence (Q13421 other isoform, or with tags, fused parts or gaps): as the sequence (Q13421 other isoform, or with tags, fused parts or gaps) above

[26] = target: T5, human MSLN-R3-his protein (human, UniProt Q13421 487-598); experiment: ELISA on coated antigen, antibody 0.0002 nM
T5 construct: it is put last here; also called human MSLN-R3 protein; hMSLN-R3-his; not shown: His tag
T5 sequence (Q13421 495-606): as the sequence (Q13421 495-606) above

[27] = target: T5, human MSLN-R3-his protein; experiment: ELISA on coated antigen, antibody 0.02 nM
Experimental: as §1

[28] = target: T4, human MSLN-R2-his protein; experiment: ELISA on coated antigen, antibody 200 nM
Experimental: as §1

[29] = target: T5, human MSLN-R3-his protein; experiment: ELISA on coated antigen, antibody 20 nM
Experimental: as §1

[30] = target: T5, human MSLN-R3-his protein; experiment: ELISA on coated antigen, no antibody (blank, column 'none')
Experimental: as §1

[31] = target: T5, human MSLN-R3-his protein; experiment: ELISA on coated antigen, antibody 0.002 nM
Experimental: as §1

[32] = target: T4, human MSLN-R2-his protein; experiment: ELISA on coated antigen, antibody 20 nM
Experimental: as §1

[33] = target: T5, human MSLN-R3-his protein; experiment: ELISA on coated antigen, antibody 2 nM
Experimental: as §1

[34] = target: T4, human MSLN-R2-his protein; experiment: ELISA on coated antigen, antibody 0.002 nM
Experimental: as §1

[35] = target: T4, human MSLN-R2-his protein; experiment: ELISA on coated antigen, antibody 2 nM
Experimental: as §1

[36] = target: T5, human MSLN-R3-his protein; experiment: ELISA on coated antigen, antibody 0.2 nM
Experimental: as §1

[37] = target: T4, human MSLN-R2-his protein; experiment: ELISA on coated antigen, antibody 0.0002 nM
Experimental: as §1

[38] = target: T4, human MSLN-R2-his protein; experiment: ELISA on coated antigen, no antibody (blank, column 'none')
Experimental: as §1

[39] = target: T5, human MSLN-R3-his protein; experiment: ELISA on coated antigen, antibody 200 nM
Experimental: as §1

[40] = target: T4, human MSLN-R2-his protein; experiment: ELISA on coated antigen, antibody 0.02 nM
Experimental: as §1

Binder | OD450 [1] [OD450] | OD450 [2] [OD450] | OD450 [3] [OD450] | OD450 [4] [OD450] | OD450 [5] [OD450] | OD450 [6] [OD450] | OD450 [7] [OD450] | OD450 [8] [OD450] | OD450 [9] [OD450] | OD450 [10] [OD450] | OD450 [11] [OD450] | OD450 [12] [OD450] | OD450 [13] [OD450] | OD450 [14] [OD450] | OD450 [15] [OD450] | OD450 [16] [OD450] | OD450 [17] [OD450] | OD450 [18] [OD450] | OD450 [19] [OD450] | OD450 [20] [OD450] | further results
B1 | 0.05 | 0.07 | 0.04 | 0.04 | 0.04 | 0.04 | 0.04 | 0.04 | 2.81 | 0.04 | 1.64 | 0.04 | 0.06 | 0.04 | 0.42 | 2.6 | 0.07 | 0.04 | 0.04 | 0.04 | OD450 [21]: 2.79 OD450; OD450 [22]: 0.04 OD450; OD450 [23]: 0.11 OD450; OD450 [24]: 0.04 OD450
B2 | 0.04 | 0.06 | 0.04 | 0.04 | 0.05 | 0.04 | 0.04 | 0.04 | 2.64 | 0.04 | 1.6 | 0.04 | 0.05 | 0.04 | 0.43 | 2.45 | 0.05 | 0.04 | 0.03 | 0.03 | OD450 [21]: 2.66 OD450; OD450 [22]: 0.04 OD450; OD450 [23]: 0.11 OD450; OD450 [24]: 0.04 OD450
B3 | – | – | – | – | – | – | – | – | – | – | – | – | – | – | – | – | – | – | – | – | OD450 [25]: 2.12 OD; OD450 [26]: 0.06 OD; OD450 [27]: 0.06 OD; OD450 [28]: 2.74 OD; OD450 [29]: 0.1 OD; OD450 [30]: 0.07 OD; OD450 [31]: 0.06 OD; OD450 [32]: 2.38 OD; OD450 [33]: 0.07 OD; OD450 [34]: 0.41 OD; OD450 [35]: 2.37 OD; OD450 [36]: 0.06 OD; OD450 [37]: 0.14 OD; OD450 [38]: 0.06 OD; OD450 [39]: 0.2 OD; OD450 [40]: 1.22 OD
B4 | 0.04 | 1.19 | 0.04 | 0.04 | 0.14 | 0.03 | 0.03 | 0.04 | 0.05 | 0.04 | 0.04 | 0.04 | 0.04 | 0.04 | 0.04 | 0.04 | 0.05 | 0.04 | 0.04 | 0.04 | OD450 [21]: 0.04 OD450; OD450 [22]: 0.05 OD450; OD450 [23]: 0.04 OD450; OD450 [24]: 0.04 OD450
